Data published in patent US9618524B2, “Method, composition, isolation and identification of a plaque particle and related biomarker” (Plaxgen Inc., priority 2012, dated 2017).

B1: Serpin B12 (protein)
chain: MDSLVTANTKFCFDLFQEIGKDDRHKNIFFSPLSLSAALGMVRLGARSDSAHQIDEVLHFNEFSQNESKEPDPCLKSNKQKAGSLNNESGLVSCYFGQLLSKLDRIKTDYTLSIANRLYGEQEFPICQEYLDGVIQFYHTTIESVDFQKNPEKSRQEINFWVECQSQGKIKELFSKDAINAETVLVLVNAVYFKAKWETYFDHENTVDAPFCLNANENKSVKMMTQKGLYRIGFIEEVKAQILEMRYTKGKLSMFVLLPSHSKDNLKGLEELERKITYEKMVAWSSSENMSEESVVLSFPRFTLEDSYDLNSILQDMGITDIFDETRADLTGISPSPNLYLSKIIHKTFVEVDENGTQAAAATGAVVSERSLRSWVEFNANHPFLFFIRHNKTQTILFYGRVCSP
B2: Isoform 2 of RNA-binding protein 39 (protein)
chain: ADDIDIEAMLEAPYKKDENKLSSANGHEERSKKRKKSKSRSRSHERKRSKSKERKRSRDRERKKSKSRERKRSRSKERRRSRSRSRDRRFRGRYRSPYSGPKFNSAIRGKIGLPHSIKLSRRRSRSKSPFRKDKSPVREPIDNLTPEERDARTVFCMQLAARIRPRDLEEFFSTVGKVRDVRMISDRNSRRSKGIAYVEFVDVSSVPLAIGLTGQRVLGVPIIVQASQAEKNRAAAMANNLQKGSAGPMRLYVGSLHFNITEDMLRGIFEPFGRIESIQLMMDSETGRSKGYGFITFSDSECAKKALEQLNGFELAGRPMKVGHVTERTDASSASSFLDSDELERTGIDLGTTGRLQLMARLAEGTGLQIPPAAQQALQMSGSLAFGAVADLQTRLSQQTEASALAAAASVQPLATQCFQLSNMFNPQTEEEVGWDTEIKDDVIEECNKHGGVIHIYVDKNSAQGNVYVKCPSIAAAIAAVNALHGRWFAGKMITAAYVPLPTYHNLFPDSMTATQLLVPSRR
B3: Dermcidin (protein)
chain: YDPEAASAPGSGNPCHEASAAQKENAGEDPGLARQAPKPRKQRSSLLEKGLDGAKKAVGGLGKLGKDAVEDLESVGKGAVHDVKDVLDSVL
B4: Carboxypeptidase N catalytic chain (protein)
chain: VTFRHHRYDDLVRTLYKVQNECPGITRVYSIGRSVEGRHLYVLEFSDHPGIHEPLEPEVKYVGNMHGNEALGRELMLQLSEFLCEEFRNRNQRIVQLIQDTRIHILPSMNPDGYEVAAAQGPNKPGYLVGRNNANGVDLNRNFPDLNTYIYYNEKYGGPNHHLPLPDNWKSQVEPETRAVIRWMHSFNFVLSANLHGGAVVANYPYDKSFEHRVRGVRRTASTPTPDDKLFQKLAKVYSYAHGWMFQGWNCGDYFPDGITNGASWYSLSKGMQDFNYLHTNCFEITLELSCDKFPPEEELQREWLGNREALIQFLEQVHQGIKGMVLDENYNNLANAVISVSGINHDVTSGDHGDYFRLLLPGIYTVSATAPGYDPETVTVTVGPAEPTLVNFHLKRSIPQVSPVRRAPSRRHGVRAKVQPQARKKEMEMRQLQRGPA
B5: Thioredoxin (protein)
chain: VKQIESKTAFQEALDAAGDKLVVVDFSATWCGPCKMIKPFFHSLSEKYSNVIFLEVDVDDCQDVASECEVKCMPTFQFFKKGQKVGEFSGANKEKLEATINELV
B6: Isoform 2 of Nucleophosmin (protein)
chain: MEDSMDMDMSPLRPQNYLFGCELKADKDYHFKVDNDENEHQLSLRTVSLGAGAKDELHIVEAEAMNYEGSPIKVTLATLKMSVQPTVSLGGFEITPPVVLRLKCGSGPVHISGQHLVAVEEDAESEDEEEEDVKLLSISGKRSAPGGGSKVPQKKVKLAADEDDDDDDEEDDDEDDDDDDFDDEEAEEKAPVKKGQESFKKQEKTPKTPKGPSSVEDIKAKMQASIEKGGSLPKVEAKFINYVKNCFRMTDQEAIQDLWQWRKSL
B7: Immunoglobulin lambda-like polypeptide 1 (protein)
chain: LLRPTAASQSRALGPGAPGGSSRSSLRSRWGRFLLQRGSWTGPRCWPRGFQSKHNSVTHVFGSGTQLTVLSQPKATPSVTLFPPSSEELQANKATLVCLMNDFYPGILTVTWKADGTPITQGVEMTTPSKQSNNKYAASSYLSLTPEQWRSRRSYSCQVMHEGSTVEKTVAPAECS
B8: Selenoprotein P (protein)
chain: ESQDQSSLCKQPPAWSIRDQDPMLNSNGSVTVVALLQASUYLCILQASKLEDLRVKLKKEGYSNISYIVVNHQGISSRLKYTHLKNKVSEHIPVYQQEENQTDVWTLLNGSKDDFLIYDRCGRLVYHLGLPFSFLTFPYVEEAIKIAYCEKKCGNCSLTTLKDEDFCKRVSLATVDKTVETPSPHYHHEHHHNHGHQHLGSSELSENQQPGAPNAPTHPAPPGLHHHHKHKGQHRQGHPENRDMPASEDLQDLQKKLCRKRCINQLLCKLPTDSELAPRSUCCHCRHLIFEKTGSAITUQCKENLPSLCSUQGLRAEENITESCQURLPPAAUQISQQLIPTEASASURUKNQAKKUEUPSN

test system: Tau plaque particles; test: Mass spectroscopy proteomics, semi-quantitative binding affinity of serum proteins (plaqueproteome, Table 2); parameters: species or system human; conditions: higher number = stronger affinity
Method in brief: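 Synthetic Tau-74 and Tau-275 peptides (1 mg/mL PBS, 37° C, 2 h) aggregated; 30 μg aggregates incubated with 50% serum/plasma 1 h at 37° C, stained with Thioflavin S, and plaque particles sorted by flow cytometry. Bound proteins trypsin-digested and identified by MS/MS against human UniProt.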

Question: Which “Semi-quantitative analysis of proteins binding to different plaque particles: Tau” value does the source give for B1 here?
Answer: 0

Question: How did the “Semi-quantitative analysis of proteins binding to different plaque particles: Tau” value turn out when B2 was run?
Answer: 0

Question: For B3, which “Semi-quantitative analysis of proteins binding to different plaque particles: Tau” value is on record?
Answer: 0

Question: With B4 as the molecule, how does the “Semi-quantitative analysis of proteins binding to different plaque particles: Tau” value read?
Answer: 1

Question: B5 was tested. Which “Semi-quantitative analysis of proteins binding to different plaque particles: Tau” value did it give?
Answer: 0

Question: B6 was tested. Which “Semi-quantitative analysis of proteins binding to different plaque particles: Tau” value did it give?
Answer: 0

Question: B7 was tested. Which “Semi-quantitative analysis of proteins binding to different plaque particles: Tau” value did it give?
Answer: 0

Question: With B8 as the molecule, how does the “Semi-quantitative analysis of proteins binding to different plaque particles: Tau” value read?
Answer: 0

target: T1, Abeta-42 plaque particles (Homo sapiens, UniProt P05067); test: as above; conditions: higher number = stronger affinity
T1 construct: Abeta 1-42
Method in brief: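 AD patient serum or plasma (50% in PBS) was incubated with Abeta-42 aggregates (30 μg) for 1 h at 37 °C, then stained with Thioflavin S for 30 min. Labeled particles were FACS-sorted, trypsin/Lys-C digested overnight and analyzed by MS/MS. Sequest searched human UniProt; Scaffold/Protein Prophet validated the identifications.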

Question: For B1, which “Semi-quantitative analysis of proteins binding to different plaque particles: Abeta-42” value is on record?
Answer: 2

Question: Which “Semi-quantitative analysis of proteins binding to different plaque particles: Abeta-42” value does the source give for B2 here?
Answer: 2

Question: With B3 as the molecule, how does the “Semi-quantitative analysis of proteins binding to different plaque particles: Abeta-42” value read?
Answer: 2

Question: B4 was tested. Which “Semi-quantitative analysis of proteins binding to different plaque particles: Abeta-42” value did it give?
Answer: 0

Question: B5 was tested. Which “Semi-quantitative analysis of proteins binding to different plaque particles: Abeta-42” value did it give?
Answer: 2

Question: B6 was tested. Which “Semi-quantitative analysis of proteins binding to different plaque particles: Abeta-42” value did it give?
Answer: 4

Question: How did the “Semi-quantitative analysis of proteins binding to different plaque particles: Abeta-42” value turn out when B7 was run?
Answer: 0

Question: For B8, which “Semi-quantitative analysis of proteins binding to different plaque particles: Abeta-42” value is on record?
Answer: 0

target: T2, alpha-synuclein plaque particles (Homo sapiens, UniProt P37840); test: as above; conditions: higher number = stronger affinity
T2 construct: 140 amino acids polypeptide
Method in brief: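 AD-subject plasma or serum (800 μL of 50%) mixed with 30 μg preformed alpha-synuclein aggregates for 1 h at 37 °C; Thioflavin S-positive particles isolated by flow sorting. After reduction, acrylamide alkylation and overnight tryptic digestion, serum proteins identified by MS/MS with Sequest and Scaffold.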

Question: With B1 as the molecule, how does the “Semi-quantitative analysis of proteins binding to different plaque particles: Synuclein” value read?
Answer: 0

Question: Which “Semi-quantitative analysis of proteins binding to different plaque particles: Synuclein” value does the source give for B2 here?
Answer: 0

Question: B3 was tested. Which “Semi-quantitative analysis of proteins binding to different plaque particles: Synuclein” value did it give?
Answer: 0

Question: For B4, which “Semi-quantitative analysis of proteins binding to different plaque particles: Synuclein” value is on record?
Answer: 0

Question: For B5, which “Semi-quantitative analysis of proteins binding to different plaque particles: Synuclein” value is on record?
Answer: 0

Question: For B6, which “Semi-quantitative analysis of proteins binding to different plaque particles: Synuclein” value is on record?
Answer: 0

Question: For B7, which “Semi-quantitative analysis of proteins binding to different plaque particles: Synuclein” value is on record?
Answer: 0

Question: B8 was tested. Which “Semi-quantitative analysis of proteins binding to different plaque particles: Synuclein” value did it give?
Answer: 1

test system: High Density cholesterol (Chl Large) plaque particles; test: as above; parameters: species or system human; conditions: higher number = stronger affinity
Method in brief: (§1)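 Proteins bound to flow-sorted cholesterol plaque particles (large/high-density or small/low-density gates) were identified by LC-MS/MS after trypsin digestion. Particles were formed from 50% atherosclerotic serum or plasma with 30 μg cholesterol aggregates, 1 h, 37 °C. Sequest human database search; Scaffold validation.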

Question: B1 was tested. Which “Semi-quantitative analysis of proteins binding to different plaque particles: Chl Large” value did it give?
Answer: 0

Question: Which “Semi-quantitative analysis of proteins binding to different plaque particles: Chl Large” value does the source give for B2 here?
Answer: 0

Question: With B3 as the molecule, how does the “Semi-quantitative analysis of proteins binding to different plaque particles: Chl Large” value read?
Answer: 0

Question: B4 was tested. Which “Semi-quantitative analysis of proteins binding to different plaque particles: Chl Large” value did it give?
Answer: 0

Question: For B5, which “Semi-quantitative analysis of proteins binding to different plaque particles: Chl Large” value is on record?
Answer: 0

Question: B6 was tested. Which “Semi-quantitative analysis of proteins binding to different plaque particles: Chl Large” value did it give?
Answer: 0

Question: With B7 as the molecule, how does the “Semi-quantitative analysis of proteins binding to different plaque particles: Chl Large” value read?
Answer: 0

Question: For B8, which “Semi-quantitative analysis of proteins binding to different plaque particles: Chl Large” value is on record?
Answer: 0

test system: Low density cholesterol (Chl small) plaque particles; test: as above; parameters: species or system human; conditions: higher number = stronger affinity
Method in brief: as §1

Question: With B1 as the molecule, how does the “Semi-quantitative analysis of proteins binding to different plaque particles: Chl small” value read?
Answer: 0

Question: B2 was tested. Which “Semi-quantitative analysis of proteins binding to different plaque particles: Chl small” value did it give?
Answer: 0

Question: B3 was tested. Which “Semi-quantitative analysis of proteins binding to different plaque particles: Chl small” value did it give?
Answer: 0

Question: B4 was tested. Which “Semi-quantitative analysis of proteins binding to different plaque particles: Chl small” value did it give?
Answer: 0

Question: With B5 as the molecule, how does the “Semi-quantitative analysis of proteins binding to different plaque particles: Chl small” value read?
Answer: 0

Question: For B6, which “Semi-quantitative analysis of proteins binding to different plaque particles: Chl small” value is on record?
Answer: 0

Question: For B7, which “Semi-quantitative analysis of proteins binding to different plaque particles: Chl small” value is on record?
Answer: 1

Question: How did the “Semi-quantitative analysis of proteins binding to different plaque particles: Chl small” value turn out when B8 was run?
Answer: 0
